# Test results taken from IntAct's records for PubMed 17679699.
# B1: Catenin beta-1 (Homo sapiens), P35222 (parent)
# chain: MATQADLMELDMAMEPDRKAAVSHWQQQSYLDSGIHSGATTTAPSLSGKGNPEEEDVDTSQVLYEWEQGFSQSFTQEQVADIDGQYAMTRAQRVRAAMFPETLDEGMQIPSTQFDAAHPTNVQRLAEPSQMLKHAVVNLINYQDDAELATRAIPELTKLLNDEDQVVVNKAAVMVHQLSKKEASRHAIMRSPQMVSAIVRTMQNTNDVETARCTAGTLHNLSHHREGLLAIFKSGGIPALVKMLGSPVDSVLFYAITTLHNLLLHQEGAKMAVRLAGGLQKMVALLNKTNVKFLAITTDCLQILAYGNQESKLIILASGGPQALVNIMRTYTYEKLLWTTSRVLKVLSVCSSNKPAIVEAGGMQALGLHLTDPSQRLVQNCLWTLRNLSDAATKQEGMEGLLGTLVQLLGSDDINVVTCAAGILSNLTCNNYKNKMMVCQVGGIEALVRTVLRAGDREDITEPAICALRHLTSRHQEAEMAQNAVRLHYGLPVVVKLLHPPSHWPLIKATVGLIRNLALCPANHAPLREQGAIPRLVQLLVRAHQDTQRRTSMGGTQQQFVEGVRMEEIVEGCTGALHILARDVHNRIVIRGLNTIPLFVQLLYSPIENIQRVAAGVLCELAQDKEAAEAIEAEGATAPLTELLHSRNEGVATYAAAVLFRMSEDKPQDYKKRLSVELTSSLFRTEPMAWNETADLGLDIGAQGEPLGYRQDDPSYRSFHSGGYGQDALGMDPMMEHEMGGHHPGADYPVDGLPDLGHAQDLMDGLPPGDSNQLAWFDTDL
# partner: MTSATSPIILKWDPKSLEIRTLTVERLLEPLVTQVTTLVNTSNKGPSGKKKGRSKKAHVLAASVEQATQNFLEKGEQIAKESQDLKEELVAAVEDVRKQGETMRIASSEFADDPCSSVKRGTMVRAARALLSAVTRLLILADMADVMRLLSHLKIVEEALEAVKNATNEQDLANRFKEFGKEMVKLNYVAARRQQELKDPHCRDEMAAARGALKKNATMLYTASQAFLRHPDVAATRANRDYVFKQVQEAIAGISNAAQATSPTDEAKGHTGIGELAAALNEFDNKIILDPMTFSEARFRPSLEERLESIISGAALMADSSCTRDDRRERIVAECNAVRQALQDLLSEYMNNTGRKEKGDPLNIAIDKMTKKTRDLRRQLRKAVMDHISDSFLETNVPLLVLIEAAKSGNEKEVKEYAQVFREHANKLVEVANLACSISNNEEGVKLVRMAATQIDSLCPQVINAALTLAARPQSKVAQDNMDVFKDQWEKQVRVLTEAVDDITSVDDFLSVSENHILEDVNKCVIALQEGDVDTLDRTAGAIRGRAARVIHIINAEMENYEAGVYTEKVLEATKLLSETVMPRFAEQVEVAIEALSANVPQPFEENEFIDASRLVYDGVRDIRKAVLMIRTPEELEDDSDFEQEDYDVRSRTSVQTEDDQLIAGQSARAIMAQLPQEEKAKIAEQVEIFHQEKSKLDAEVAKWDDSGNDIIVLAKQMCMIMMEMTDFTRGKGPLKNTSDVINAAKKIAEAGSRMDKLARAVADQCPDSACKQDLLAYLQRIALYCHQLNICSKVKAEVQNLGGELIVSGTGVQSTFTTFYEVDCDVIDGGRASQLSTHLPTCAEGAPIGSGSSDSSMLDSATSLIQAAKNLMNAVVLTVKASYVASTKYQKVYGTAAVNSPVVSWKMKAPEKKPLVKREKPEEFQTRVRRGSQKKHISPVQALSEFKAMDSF
# Variants of: B1
# Conditions: with ctna2_human CTNNA2, P26232
row,Variant,effect of a mutation on the interaction
1,L132A,disrupting interaction strength
